Experimental data published in patent US9738911B2, “Methods of producing 7-carbon chemicals via pyruvate and succinate semialdehyde aldol condensation” (INVISTA North America S.a r.l., priority 2012, dated 2017).

How the values were obtained:
[1] = Carboxylate reductase activity assay, pimelate to pimelate semialdehyde; assay type: biochemical; conditions: 2 mM pimelate, 1 mM ATP, 1 mM NADPH, enhanced by sfp gene product, room temperature, 20 min; against empty vector control (FIG. 10)
Procedure: A sequence encoding a HIS-tag was added to the genes from Segniliparus rugosus and Segniliparus rotundus that encode the carboxylate reductases of SEQ ID NOs: 4 and 7, respectively (see FIGS. 7C and 7F), such that N-terminal HIS tagged carboxylate reductases could be produced. Each of the modified genes was cloned into a pET Duet expression vector along with a sfp gene encoding a HIS-tagged phosphopantetheine transferase from Bacillus subtilis, both under the T7 promoter. Each expression vector was transformed into a BL21[DE3] E. coli host and the resulting recombinant E. coli strains were cultivated at 37° C. in a 250 mL shake flask culture containing 50 mL LB media and antibiotic selection pressure, with shaking at 230 rpm. Each culture was induced overnight at 37° C. using an auto-induction media.
The pellet from each induced shake flask culture was harvested via centrifugation. Each pellet was resuspended and lysed via sonication, and the cell debris was separated from the supernatant via centrifugation. […]
Enzyme activity assays (i.e., from pimelate to pimelate semialdehyde) were performed in triplicate in a buffer composed of a final concentration of 50 mM HEPES buffer (pH=7.5), 2 mM pimelate, 10 mM MgCl, 1 mM ATP and 1 mM NADPH. […] The consumption of NADPH was monitored by absorbance at 340 nm.

[2] = Thioesterase enzyme activity assay, pimeloyl-CoA to pimelate; assay type: biochemical; conditions: 667 μM pimeloyl-CoA, 0.8 μM enzyme, 37° C., 20 min, pH 7.4; compared to empty vector control (FIG. 8)
Procedure: A sequence encoding an N-terminal His tag was added to the tesB gene from Escherichia coli that encodes a thioesterase (SEQ ID NO 1, see FIG. 7A), such that an N-terminal HIS tagged thioesterase could be produced. The modified tesB gene was cloned into a pET15b expression vector under control of the T7 promoter. The expression vector was transformed into a BL21[DE3] E. coli host. The resulting recombinant E. coli strain was cultivated at 37° C. in a 500 mL shake flask culture containing 50 mL Luria Broth (LB) media and antibiotic selection pressure, with shaking at 230 rpm. The culture was induced overnight at 17° C. using 0.5 mM IPTO.
The pellet from the induced shake flask culture was harvested via centrifugation. The pellet was resuspended and lysed in Y-Per™ solution (ThermoScientific, Rockford, Ill.). The cell debris was separated from the supernatant via centrifugation. […]
The enzyme activity assay was performed in triplicate in a buffer composed of 50 mM phosphate buffer (pH=7.4), 0.1 mM Ellman's reagent, and 667 μM of pimeloyl-CoA (as substrate). […] The release of Coenzyme A was monitored by absorbance at 412 nm. The absorbance associated with the substrate only control, which contained boiled enzyme, was subtracted from the active enzyme assay absorbance and compared to the empty vector control.

substrate acceptance, consumption of NADPH by absorbance at 340 nm [1]	substrate acceptance, release of Coenzyme A monitored by absorbance at 412 nm [2]	Molecule
accepted pimelate as substrate	–	SEQ ID NO 4: Segniliparus rugosus carboxylate reductase (Genbank Accession No. EFV 11917.1) (protein, listed as Segniliparus rugosus) MGDGEERAKRFFQRIGELSATDPQFAAAAPDPAVVEAVSDPSLSFTRYLDTLMRGYAERPALAHRVGAGYETISYGELWARVGAIAAAWQADGLAPGDFVATVGFTSPDYVAVDLAAARSGLVSVPLQAGASLAQLVGILEETEPKVLAASASSLEGAVACALAAPSVQRLVVFDLRGPDASESAADERRGALADAEEQLARAGRAVVVETLADLAARGEALPEAPLFEPAEGEDPLALLIYTSGSTGAPKGAMYSQRLVSQLWGRTPVVPGMPNISLHYMPLSHSYGRAVLAGALSAGGTAHFTANSDLSTLFEDIALARPTFLALVPRVCEMLFQESQRGQDVAELRERVLGGRLLVAVCGSAPLSPEMRAFMEEVLGFPLLDGYGSTEALGVMRNGIIQRPPVIDYKLVDVPELGYRTTDKPYPRGELCIRSTSLISGYYKRPEITAEVFDAQGYYKTGDVMAEIAPDHLVYVDRSKNVLKLSQGEFVAVAKLEAAYGTSPYVKQIFVYGNSERSFLLAVVVPNAEVLGARDQEEAKPLIAASLQKIAKEAGLQSYEVPRDFLIETEPFTTQNGLLSEVGKLLRPKLKARYGEALEARYDEIAHGQADELRALRDGAGQRPVVETVVRAAVAISGSEGAEVGPEANFADLGGDSLSALSLANLLHDVFEVEVPVRIIIGPTASLAGIAKHIEAERAGASAPTAASVHGAGATRIRASELTLEKFLPEDLLAAAKGLPAADQVRTVLLTGANGWLGRFLALEQLERLARSGQDGGKLICLVRGKDAAAARRRIEETLGTDPALAARFAELAEGRLEVVPGDVGEPKFGLDDAAWDRLAEEVDVIVHPAALVNHVLPYHQLFGPNVVGTAEIIRLAITAKRKPVTYLSTVAVAAGVEPSSFEEDGDIRAVVPERPLGDGYANGYGNSKWAGEVLLREAHELVGLPVAVFRSDMILAHTRYTGQLNVPDQFTRLVLSLLATGIAPKSFYQQGAAGERQRAHYDGIPVDFTAEAITTLGAEPSWFDGGAGFRSFDVFNPHHDGVGLDEFVDWLIEAGHPISRIDDHKEWFARFETAVRGLPEAQRQHSLLPLLRAYSFPHPPVDGSVYPTGKFQGAVKAAQVGSDHDVPHLGKALIVKYADDLKALGLL
–	accepted pimeloyl-CoA as substrate	gene product of tesB: Escherichia coli thioesterase encoded by tesB (GenBank Accession No. AAA24665.1) (protein, listed as Escherichia coli) MSQALKNLLTLLNLEKIEEGLFRGQSEDLGLRQVFGGQVVGQALYAAKETVPEERLVHSFHSYFLRPGDSKKPIIYDVETLRDGNSFSARRVAAIQNGKPIFYMTASFQAPEAGFEHQKTMPSAPAPDGLPSETQIAQSLAHLLPPVLKDKFICDRPLEVRPVEFHNPLKGHVAEPHRQVWIRANGSVPDDLRVHQYLLGYASDLNFLPVALQPHGIGFLEPGIQIATIDHSMWFHRPFNLNEWLLYSVESTSASSARGFVRGEFYTQDGVLVASTVQEGVMRNHN
